Assay results published in publication PMC314469, “Protein Interaction Networks by Proteome Peptide Scanning” (PLoS Biology, 2004).

T1: amphyphisin SH3 (AMPH_HUMAN), P49418
T1 chain: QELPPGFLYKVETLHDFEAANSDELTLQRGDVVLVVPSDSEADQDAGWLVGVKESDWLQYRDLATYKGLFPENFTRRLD


Target: T1, amphyphisin SH3 (AMPH_HUMAN), P49418
Experiment: SPOT array

Row | normalised SPOT signal, Boehringer light units (BLU); mean over the file's lines of this peptide | Binder
1 | 53.5 | LAELPGRPPIFWPG [Q9C056 106-120]
2 | 19.4 | LAEELIRPERNTLV [Q14566 49-62]
3 | 60.3 | KRGRPGRPPSTNKK [O00539 35-49]
4 | 64.7 | KRVVPKKPPPSPQP [Q13438 518-532]
5 | 36.6 | KTFGIRRPLDPLDP [Q9C0J1 326-339]
6 | 4080 | KVHVPARPYRVLNN [P46013 726-739]
7 | 87.1 | KTHPLIRPFKTLTE [Q15413 2649-2662]
8 | 239 | KTKTLLRPERSRFD [O75705 229-242]
9 | 168 | KSLRIARPPKQGLN [P49815 945-958]
10 | 3060 | APANLERPVRYIRK [Q9NYB9 126-139]
11 | 5.2 | KQASLKRPPTAGAQ [Q9UBC5 553-566]
12 | 79.4 | KQYMLRRPALEDYV [Q9NWS7 207-220]
13 | 62.4 | LAELPQKPPPGDLP [Q9ULH1 746-760]
14 | 5990 | APALPARPHRGLST [Q9UFL7 72-85]
15 | 57.4 | KRKKFKRPPQRLFD [O00267 328-341]
16 | 77.5 | LAARLRRPSPPEPW [Q9P1Y6 933-946]
17 | 27.9 | KRNSLKRPRDVDHR [Q9H8U9 166-179]
18 | 12.4 | KRIKLRRPRVSKQR [Q96FU1 26-39]
19 | 3230 | KTLRLWRPPRYPRK [Q9NPT6 50-63]
20 | 16200 | KVTAPRRPQRYSSG [Q9ULI4 1214-1227]
21 | 9120 | KTEKPERPSRERDR [Q02241 662-675]

Row | normalised SPOT signal, Boehringer light units (BLU); mean over the file's lines of this peptide | Binder
22 | 733 | KSQYFWRPKRMELS [Q9NYS8 813-826]
23 | 39.4 | KYSGPYKPPGILKQ [P20933 176-190]
24 | 109 | KRKKPSRPAKTRKR [Q9UNZ9 85-98]
25 | 1320 | KSQGPAKPPPPRKP [Q13444 758-772]
26 | 99.3 | LAEGINRPRKGHDA [O95985 371-384]
27 | 24.8 | KSPIPRRPTQSFVK [Q9ULL0 591-604]
28 | 46.4 | KYSAPRRPTATGDY [O00501 199-212]
29 | 199 | APALPPKPPKPTTV [P27986 303-317]
30 | 21 | KVFLLRRPPQAPLP [Q9P2E8 92-105]
31 | 29 | KTKGPSRPPLDAKI [Q9HC16 39-53]
32 | 45.6 | LAHILRRPIIVYGV [Q9UGI0 529-542]
33 | 8020 | KPSRPPRPSRPPPP [O43584 85-98]
34 | 31.7 | KSLKLRRPLYAHLA [Q13304 138-151]
35 | 24.7 | KSKKFRRPDIQYPD [P10451 170-183]
36 | 29.5 | KSRTLKRPTVLEPI [O60469 1933-1946]
37 | 51.5 | KSLPLRRPSYTLGM [O43166 958-971]
38 | 14200 | ANPPPKRPVRASSR [Q9HCK1 771-784]
39 | 57.1 | KPRQIKRPLEDAIE [Q9UNI5 8-21]
40 | 31.5 | KTTPLRRPTETNPV [P46100 660-673]
41 | 147 | KQVSPRRPQATEAV [Q9Y3H2 190-203]
42 | 226 | KPVSPRRPWSPSKE [Q9HCL7 1184-1197]

target: endophilin SH3 (SH3G2_HUMAN), Q99962; experiment: SPOT array

Row | normalised SPOT signal, Boehringer light units (BLU); mean over the file's lines of this peptide | Binder
43 | 98 | LAELPGRPPIFWPG [Q9C056 106-120]
44 | -0 | LAEELIRPERNTLV [Q14566 49-62]
45 | 2490 | KRGRPGRPPSTNKK [O00539 35-49]
46 | 278 | KRVVPKKPPPSPQP [Q13438 518-532]
47 | 41.5 | KTFGIRRPLDPLDP [Q9C0J1 326-339]
48 | 1730 | KVHVPARPYRVLNN [P46013 726-739]
49 | 148 | KTHPLIRPFKTLTE [Q15413 2649-2662]
50 | 80.8 | KTKTLLRPERSRFD [O75705 229-242]
51 | 398 | KSLRIARPPKQGLN [P49815 945-958]
52 | 180 | APANLERPVRYIRK [Q9NYB9 126-139]
53 | 55.2 | KQASLKRPPTAGAQ [Q9UBC5 553-566]
54 | 148 | KQYMLRRPALEDYV [Q9NWS7 207-220]
55 | 37.5 | LAELPQKPPPGDLP [Q9ULH1 746-760]
56 | 37600 | APALPARPHRGLST [Q9UFL7 72-85]
57 | 22.5 | KRKKFKRPPQRLFD [O00267 328-341]
58 | 1180 | LAARLRRPSPPEPW [Q9P1Y6 933-946]
59 | 0 | KRNSLKRPRDVDHR [Q9H8U9 166-179]
60 | 20.7 | KRIKLRRPRVSKQR [Q96FU1 26-39]
61 | 223 | KTLRLWRPPRYPRK [Q9NPT6 50-63]
62 | 5620 | KVTAPRRPQRYSSG [Q9ULI4 1214-1227]
63 | 403 | KTEKPERPSRERDR [Q02241 662-675]

Row | normalised SPOT signal, Boehringer light units (BLU); mean over the file's lines of this peptide | Binder
64 | 232 | KSQYFWRPKRMELS [Q9NYS8 813-826]
65 | 47.7 | KYSGPYKPPGILKQ [P20933 176-190]
66 | 175 | KRKKPSRPAKTRKR [Q9UNZ9 85-98]
67 | 7680 | KSQGPAKPPPPRKP [Q13444 758-772]
68 | 198 | LAEGINRPRKGHDA [O95985 371-384]
69 | 574 | KSPIPRRPTQSFVK [Q9ULL0 591-604]
70 | 36.9 | KYSAPRRPTATGDY [O00501 199-212]
71 | 2440 | APALPPKPPKPTTV [P27986 303-317]
72 | 993 | KVFLLRRPPQAPLP [Q9P2E8 92-105]
73 | 2250 | KTKGPSRPPLDAKI [Q9HC16 39-53]
74 | 629 | LAHILRRPIIVYGV [Q9UGI0 529-542]
75 | 46000 | KPSRPPRPSRPPPP [O43584 85-98]
76 | 38.4 | KSLKLRRPLYAHLA [Q13304 138-151]
77 | 40.5 | KSKKFRRPDIQYPD [P10451 170-183]
78 | 50.9 | KSRTLKRPTVLEPI [O60469 1933-1946]
79 | 322 | KSLPLRRPSYTLGM [O43166 958-971]
80 | 8740 | ANPPPKRPVRASSR [Q9HCK1 771-784]
81 | 30.7 | KPRQIKRPLEDAIE [Q9UNI5 8-21]
82 | 57.5 | KTTPLRRPTETNPV [P46100 660-673]
83 | 125 | KQVSPRRPQATEAV [Q9Y3H2 190-203]
84 | 1760 | KPVSPRRPWSPSKE [Q9HCL7 1184-1197]
